{
  "source": "paper PMC8600288",
  "biological_target": "AlyA3, PL17 alginate lyase from Zobellia galactanivorans DsijT (recombinant, His-tagged, without signal peptide) (Zobellia galactanivorans DsijT)",
  "experiment": "SEC",
  "data": [
    {"substance": "AlyA3, PL17 alginate lyase from Zobellia galactanivorans DsijT (recombinant, His-tagged, without signal peptide) (enzyme)", "values": [
      {"measurement": "stoichiometry N", "value": 2}
    ]}
  ]
}
